The target in the assay is T1, NKG2D (human, UniProt P26718 78-216, limits assumed).
T1 construct: XENP25379 (human) and XENP25380 (cynomolgus) were the panning antigens; also called Recombinant human NKG2D (XENP25379); CD314
T1 sequence (looked up): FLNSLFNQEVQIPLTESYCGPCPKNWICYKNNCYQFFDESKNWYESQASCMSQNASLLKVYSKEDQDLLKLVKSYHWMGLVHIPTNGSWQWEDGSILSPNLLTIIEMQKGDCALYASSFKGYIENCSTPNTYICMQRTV
Nature of the assay: ELISA of phage clones on NKG2D.

B1: 1D2B4[NKG2D] (antibody, V domains shown)
VH: EVQLLESGGGLVQPGGSLRLSCAASGFTFSSFGMSWVRQAPGKGLEWVSTISGSGSTTYYADSVKGRFTISRDNSKNTLYLQMNSLRAEDTAVYYCAKGVFSEWHYYFDYWGQGTLVTVSS
VL: not shown
As for B1, the binding result is reported as “binds”.

The record behind these values is patent US20230151095A1 (Xencor, published 2023).
